In patent publication US20260062456A1 (ALPINE IMMUNE SCIENCES, published 2026):
Positions count from the first letter of the chain named. Names and notes keep the numbering of the source.

T1: human TIGIT stably expressed on Jurkat/IL-2 reporter cells (Jurkat/TIGIT cells) (human, UniProt Q495A1 22-244)
T1 sequence (looked up): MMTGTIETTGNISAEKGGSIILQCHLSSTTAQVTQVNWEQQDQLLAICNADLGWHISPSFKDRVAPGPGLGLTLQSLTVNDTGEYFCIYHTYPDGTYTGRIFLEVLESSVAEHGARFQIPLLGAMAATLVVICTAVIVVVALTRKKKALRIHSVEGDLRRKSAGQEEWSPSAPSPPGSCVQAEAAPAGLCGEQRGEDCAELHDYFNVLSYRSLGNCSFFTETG

B1: PD-L1/CD155 Stack 1: (CD155 IgV) (G4S)2 Fc (G4S)3 (PD-L1 IgV) (Fc fusion)
chain: WPPPGTGDVVVQAPTQVSGFLGDSVTLPCYLQVPNMEVTHVSQLTWARHGESGSMAVFHQTQGPWYAESKRLEFVAARLGAELRNASLRMFGLRVEDEGNYTCQFVTFPQRSRSVDIWLRVLGGGGSGGGGSEPKSSDKTHTCPPCPAPEAEGAPSVFLFPPKPKDTLMISRTPEVTCVVVDVSHEDPEVKFNWYVDGVEVHNAKTKPREEQYNSTYRVVSVLTVLHQDWLNGKEYKCKVSNKALPAPIEKTISKAKGQPREPQVYTLPPSRDELTKNQVSLTCLVKGFYPSDIAVEWESNGQPENNYKTTPPVLDSDGSFFLYSKLTVDKSRWQQGNVFSCSVMHEALHNHYTQKSLSLSPGKGGGGSGGGGSGGGGSFTVTVPKDLYVVEYGSNMTIECKFPVEKQLDLAALIVYWEMEGKDIIQFVHGEEDQKAQHSSYRQRARLLKDQLSLGNAALQITDVKLQDAGVYRCMISYGGGADYKRITVKVNA
B2: PD-L1/CD155 Stack 2: (PD-L1 IgV) (G4S)2 Fc(G4S)3 (CD155 IgV) (Fc fusion)
chain: FTVTVPKDLYVVEYGSNMTIECKFPVEKQLDLAALIVYWEMEGKDIIQFVHGEEDQKAQHSSYRQRARLLKDQLSLGNAALQITDVKLQDAGVYRCMISYGGGADYKRITVKVNAGGGGSGGGGSEPKSSDKTHTCPPCPAPEAEGAPSVFLFPPKPKDTLMISRTPEVTCVVVDVSHEDPEVKFNWYVDGVEVHNAKTKPREEQYNSTYRVVSVLTVLHQDWLNGKEYKCKVSNKALPAPIEKTISKAKGQPREPQVYTLPPSRDELTKNQVSLTCLVKGFYPSDIAVEWESNGQPENNYKTTPPVLDSDGSFFLYSKLTVDKSRWQQGNVFSCSVMHEALHNHYTQKSLSLSPGKGGGGSGGGGSGGGGSWPPPGTGDVVVQAPTQVSGFLGDSVTLPCYLQVPNMEVTHVSQLTWARHGESGSMAVFHQTQGPWYAESKRLEFVAARLGAELRNASLRMFGLRVEDEGNYTCQFVTFPQRSRSVDIWLRVL
B3: variant PD-L1 ECD-Fc E27D, N45D, T183A, I188V (Fc fusion, not shown: a dimerising Fc or GST)
chain: FTVTVPKDLYVVEYGSNMTIECKFPVDKQLDLAALIVYWEMEDKDIIQFVHGEEDLKVQHSSYRQRARLLKDQLSLGNAALQITDVKLQDAGVYRCMISYGGADYKRITVKVNAPYNKINQRILVVDPVTSEHELTCQAEGYPKAEVIWTSSDHQVLSGKTTTTNSKREEKLFNVTSTLRINATTNEVFYCTFRRLDPEENHTAELVIPELPLAHPPNER
B4: variant PD-L1 ECD-Fc N45D, Q89R, I98V (Fc fusion, not shown: a dimerising Fc or GST)
chain: B3 chain with D27E, Q89R, I98V, A183T, V188I
B5: variant PD-L1 ECD-Fc N45D, K111T, R195G (Fc fusion, not shown: a dimerising Fc or GST)
chain: B3 chain with D27E, K111T, A183T, V188I, R195G
B6: variant PD-L1 ECD-Fc N45D, F173I, S177C (Fc fusion, not shown: a dimerising Fc or GST)
chain: B3 chain with D27E, F173I, S177C, A183T, V188I
B7: variant PD-L1 ECD-Fc I98T, F173Y, L196S (Fc fusion, not shown: a dimerising Fc or GST)
chain: B3 chain with D27E, D45N, I98T, F173Y, A183T, V188I, L196S
B8: variant PD-L1 ECD-Fc N45D, E134G, L213P (Fc fusion, not shown: a dimerising Fc or GST)
chain: B3 chain with D27E, E134G, A183T, V188I, L213P
B9: variant PD-L1 ECD-Fc N45D, V50A, I119T, K144E (Fc fusion, not shown: a dimerising Fc or GST)
chain: B3 chain with D27E, V50A, I119T, K144E, A183T, V188I
B10: variant PD-L1 ECD-Fc N45D, K111T, T183A, I188V (Fc fusion, not shown: a dimerising Fc or GST)
chain: B3 chain with D27E, K111T
B11: variant PD-L1 ECD-Fc K28E, N45D, W149R, S158G, P198T (Fc fusion, not shown: a dimerising Fc or GST)
chain: B3 chain with D27E, K28E, W149R, S158G, A183T, V188I, P198T
B12: variant PD-L1 ECD-Fc N45D, I148V, R195G (Fc fusion, not shown: a dimerising Fc or GST)
chain: B3 chain with D27E, I148V, A183T, V188I, R195G
B13: variant PD-L1 ECD-Fc M41K, D43G, N45D, R64S, R195G (Fc fusion, not shown: a dimerising Fc or GST)
chain: B3 chain with D27E, M41K, D43G, R64S, A183T, V188I, R195G
B14: variant PD-L1 ECD-Fc N45D, V50A, I148V, R195G, N201D (Fc fusion, not shown: a dimerising Fc or GST)
chain: B3 chain with D27E, V50A, I148V, A183T, V188I, R195G, N201D
B15: variant PD-L1 ECD-Fc N45D, S75P, P198S (Fc fusion, not shown: a dimerising Fc or GST)
chain: B3 chain with D27E, S75P, A183T, V188I, P198S
B16: variant PD-L1 ECD-Fc N45D, R68L, F173L, D197G, P198S (Fc fusion, not shown: a dimerising Fc or GST)
chain: B3 chain with D27E, R68L, F173L, A183T, V188I, D197G, P198S
B17: variant PD-L1 ECD-Fc K23N, N45D, S75P, N120S (Fc fusion, not shown: a dimerising Fc or GST)
chain: B3 chain with K23N, D27E, S75P, N120S, A183T, V188I
B18: variant PD-L1 ECD-Fc N45D, V50A, R195T (Fc fusion, not shown: a dimerising Fc or GST)
chain: B3 chain with D27E, V50A, A183T, V188I, R195T
B19: variant PD-L1 ECD-Fc N45D, G52V, Q121L, P198S (Fc fusion, not shown: a dimerising Fc or GST)
chain: B3 chain with D27E, G52V, Q121L, A183T, V188I, P198S
B20: variant PD-L1 ECD-Fc N45D, T183A, T192S, R194G (Fc fusion, not shown: a dimerising Fc or GST)
chain: B3 chain with D27E, V188I, T192S, R194G
B21: variant PD-L1 ECD-Fc M41K, D43G, K44E, N45D, R195G, N201D (Fc fusion, not shown: a dimerising Fc or GST)
chain: B3 chain with D27E, M41K, D43G, K44E, A183T, V188I, R195G, N201D
B22: variant PD-L1 ECD-Fc K23N, N45D, Q73R, T163I (Fc fusion, not shown: a dimerising Fc or GST)
chain: B3 chain with K23N, D27E, Q73R, T163I, A183T, V188I
B23: variant PD-L1 ECD-Fc N45D, I148V, R195G, N201D (Fc fusion, not shown: a dimerising Fc or GST)
chain: B3 chain with D27E, I148V, A183T, V188I, R195G, N201D
B24: variant PD-L1 ECD-Fc N45D, V50A, L124S, K144E, L179P, R195G (Fc fusion, not shown: a dimerising Fc or GST)
chain: B3 chain with D27E, V50A, L124S, K144E, L179P, A183T, V188I, R195G
B25: variant PD-L1 ECD-Fc N45D, N165Y, E170G (Fc fusion, not shown: a dimerising Fc or GST)
chain: B3 chain with D27E, N165Y, E170G, A183T, V188I
B26: variant PD-L1 ECD-Fc N45D, S131F, P198S (Fc fusion, not shown: a dimerising Fc or GST)
chain: B3 chain with D27E, S131F, A183T, V188I, P198S
B27: variant PD-L1 ECD-Fc N45D, N113Y, R195S (Fc fusion, not shown: a dimerising Fc or GST)
chain: B3 chain with D27E, N113Y, A183T, V188I, R195S
B28: variant PD-L1 ECD-Fc N45D, S99G, C137R, V207A (Fc fusion, not shown: a dimerising Fc or GST)
chain: B3 chain with D27E, S99G, C137R, A183T, V188I, V207A
B29: variant PD-L1 ECD-Fc N45D, G102D, R194W, R195G (Fc fusion, not shown: a dimerising Fc or GST)
chain: B3 chain with D27E, G102D, A183T, V188I, R194W, R195G
B30: variant PD-L1 ECD-Fc V11E, N45D, T130A, P198T (Fc fusion, not shown: a dimerising Fc or GST)
chain: B3 chain with V11E, D27E, T130A, A183T, V188I, P198T
B31: variant PD-L1 ECD-Fc N45D, T163I, K167R, R195G (Fc fusion, not shown: a dimerising Fc or GST)
chain: B3 chain with D27E, T163I, K167R, A183T, V188I, R195G
B32: variant PD-L1 ECD-Fc K28R, N45D, V129D, T163N, R195T (Fc fusion, not shown: a dimerising Fc or GST)
chain: B3 chain with D27E, K28R, V129D, T163N, A183T, V188I, R195T
B33: variant PD-L1 ECD-Fc M41K, D43G, N45D, R64S, S99G (Fc fusion, not shown: a dimerising Fc or GST)
chain: B3 chain with D27E, M41K, D43G, R64S, S99G, A183T, V188I

What follows are binders tested against T1, human TIGIT stably expressed on … (assay: cell-based or functional assay).

Fold Increase Compared to non-stack variant CD155 IgV-Fc control [fold]	Fold Increase Compared to non-stack variant PD-L1 IgV-Fc control [fold]	Fold Increase Compared to variant PD-L1 IgV-Fc and variant CD155 IgV-Fc [fold]	RLU [RLU]	Binder
1.7	0.6	0.8	573	B1
2.8	1	1.4	962	B2

Each binder was assayed against T2, human PD-1 stably expressed on Jurkat/IL-2 reporter cells (Jurkat/PD-1 cells) (human, UniProt Q15116 25-288) (assay: cell-based or functional assay).
T2 sequence (Q15116 25-288): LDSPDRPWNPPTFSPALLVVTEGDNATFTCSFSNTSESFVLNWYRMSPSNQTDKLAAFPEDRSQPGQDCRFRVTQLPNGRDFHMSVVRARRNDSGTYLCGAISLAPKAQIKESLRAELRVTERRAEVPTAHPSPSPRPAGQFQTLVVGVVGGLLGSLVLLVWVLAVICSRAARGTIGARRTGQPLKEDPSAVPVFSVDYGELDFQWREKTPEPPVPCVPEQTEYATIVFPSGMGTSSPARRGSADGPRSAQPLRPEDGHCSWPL

Fold Increase Compared to non-stack variant CD155 IgV-Fc control [fold]	Fold Increase Compared to non-stack variant PD-L1 IgV-Fc control [fold]	Fold Increase Compared to variant PD-L1 IgV-Fc and variant CD155 IgV-Fc [fold]	RLU [RLU]	Binder
1.7	0.6	0.8	573	B1
2.8	1	1.4	962	B2

The binders below were run against T2, human PD-1 stably expressed on … (assay: flow cytometry, Jurkat/PD-1 cells).

Fold Increase over WT PD-L1 ECD-Fc [fold]	MFI at 20 nM conc. [MFI]	Binder
26.6	133000	B3
18.1	90500	B4
13.1	65700	B5
0.4	2200	B6
0	236	B7
0.5	2260	B8
6.8	34200	B9
21.7	109000	B10
0.1	691	B11
21.8	109000	B12
27.4	137000	B13
26.2	131000	B14
25.9	130000	B15
11.8	59300	B16
26.4	132000	B17
28.3	142000	B18

Fold Increase over WT PD-L1 ECD-Fc [fold]	MFI at 20 nM conc. [MFI]	Binder
0.1	296	B19
0.3	1350	B20
28.9	145000	B21
27.8	139000	B22
26.1	131000	B23
3.6	18200	B24
17.8	89000	B25
23.2	116000	B26
22.4	112000	B27
0.2	834	B28
2.7	13400	B29
27.4	137000	B30
26.7	134000	B31
27.4	137000	B32
26.9	135000	B33
